Test results published in article PMC6077200.

Target: nicotinic acetylcholine receptors containing subunits α7, α9 and α10 of monocytic U937 cells (human (endogenous in U937)) (UniProt P36544)

B1: purified human endogenous C-reactive protein (natural protein)
chain: QTDMSRKAFVFPKESDTSYVSLKAPLTKPLKAFTVCLHFYTELSSTRGYSIFSYATKRQDNEILIFWSKDIGYSFTVGGSEILFEVPEVTVAPVHICTSWESASGIVEFWVDGKPRVRKSLKKGYTVGAEASIILGQEQDSFGGNFEGSQSLVGDIGNVNMWDFVLSPDEINTIYLGGPFSPNVLNWRALKYEVQGEVFTKPQLWP
  IC50 of eCRP for inhibition of BzATP-induced (100 µM) IL-1β release from LPS-primed U937 cells (the paper says this corresponds to about 40 nM pentameric CRP): 4.9 µg/mL
